Reference: patent US20130287807A1, “COMPOUNDS FOR TREATING SYMPTOMS ASSOCIATED WITH PARKINSON'S DISEASE” (priority 2008, published 2013)

Assays:
[1] = tested on: monoclonal antibody MV-001; experiment: In vitro inhibition assay (ELISA), MV-001 binding to original epitope; design: species or system C57/B16 mice; conditions: Table 2C; OD at 10 ug peptide compared to original peptide
Procedure: Different amounts of peptides (concentrations ranging from 10 μg to 0.08 μg; serial dilutions; for MV-002: concentrations ranging from 5 μg to 0.03 μg; serial dilutions), derived from Phage Display were incubated with the monoclonal antibody that was used for the screening procedure. Peptides diminishing subsequent binding of the antibody to the original epitope coated on ELISA plates were considered as inhibiting in this assay.
Legend to Table 2C: the inhibition capacity is coded by the following code: Weak inhibition means more peptide is required to lower AB binding than with the original epitope; strong inhibition means similar peptide amounts are required for mimotope and original epitope for lowering AB binding. Mimotopes are compared to the original peptide as standard. OD at 10 ug peptide used in the assay is used to calculate the competition capacity compared to original peptide.

[2] = tested on: monoclonal antibody MV-001; experiment: In vitro binding assay (ELISA), BSA-coupled peptides, parental antibody MV-001; design: species or system C57/B16 mice; conditions: Table 1C; peptide-BSA on plate, compared to original epitope
Procedure: Peptides derived from Phage Display as well as variants thereof were coupled to BSA and bound to ELISA plates (1 μM; as indicated in the respective figures) and subsequently incubated with the monoclonal antibody that was used for the screening procedure to analyse binding capacity of identified peptides.
Legend to Table 1C: the binding capacity is coded by the following binding code: 1:X describes the dilution factor of the parental AB

[3] = biological target: monoclonal antibody MV-001; experiment: ELISA on peptide-BSA; code 3 = strong binding, OD halfmax 1:>20000
[4] = biological target: monoclonal antibody MV-001; experiment: inhibition ELISA, competitor coated original epitope p4371; code 1 = weaker than original epitope
[5] = biological target: DAEFRH-peptide-specific monoclonal antibody (Example 1); experiment: inhibition ELISA, competitor plate-bound DAEFRH-C-BSA

## CHEFRH [p4802]
[1]
  Inhibition Capacity: 2 (strong inhibition (as original epitope; OD of 10 ug peptide below 2 times of original peptide))
[2]
  Binding Capacity: 3 (strong binding :>20000)

## CSEFKH [p4800]
[1]
  Inhibition Capacity: 2 (strong inhibition (as original epitope; OD of 10 ug peptide below 2 times of original peptide))
[2]
  Binding Capacity: 3 (strong binding :>20000)

## DGLLFKHC [p4741]
[1]
  Inhibition Capacity: 1 (Weaker than original epitope (OD of 10 ug peptide below 3 times of original peptide))
[2]
  Binding Capacity: 3 (strong binding :>20000)

## EEFKYSC [p4393]
[1]
  Inhibition Capacity: 1 (Weaker than original epitope (OD of 10 ug peptide below 3 times of original peptide))
[2]
  Binding Capacity: 2 (medium binding :4000-20000)

## EELRHSVC [p4746]
[1]
  Inhibition Capacity: 1 (Weaker than original epitope (OD of 10 ug peptide below 3 times of original peptide))
[2]
  Binding Capacity: 3 (strong binding :>20000)

## HEFRHC [p4803]
[1]
  Inhibition Capacity: 2 (strong inhibition (as original epitope; OD of 10 ug peptide below 2 times of original peptide))
[2]
  Binding Capacity: 3 (strong binding :>20000)

## LPFRHGC [p4388]
[1]
  Inhibition Capacity: 1 (Weaker than original epitope (OD of 10 ug peptide below 3 times of original peptide))
[2]
  Binding Capacity: 2 (medium binding :4000-20000)

## NWFPHPC [p4392]
[1]
  Inhibition Capacity: 1 (Weaker than original epitope (OD of 10 ug peptide below 3 times of original peptide))
[2]
  Binding Capacity: 1 (weak binding :<4000)

## QDFRHYC [p4380]
[1]
  Inhibition Capacity: 1 (Weaker than original epitope (OD of 10 ug peptide below 3 times of original peptide))
[2]
  Binding Capacity: 2 (medium binding :4000-20000)

## QFKHDLC [p4391]
[1]
  Inhibition Capacity: 1 (Weaker than original epitope (OD of 10 ug peptide below 3 times of original peptide))
[2]
  Binding Capacity: 2 (medium binding :4000-20000)

## SAFRHHC [p4387]
[1]
  Inhibition Capacity: 1 (Weaker than original epitope (OD of 10 ug peptide below 3 times of original peptide))
[2]
  Binding Capacity: 2 (medium binding :4000-20000)

## SEFKHC [p4801]
[1]
  Inhibition Capacity: 1 (Weaker than original epitope (OD of 10 ug peptide below 3 times of original peptide))
[2]
  Binding Capacity: 3 (strong binding :>20000)

## SHFRHGC [p4389]
[1]
  Inhibition Capacity: 1 (Weaker than original epitope (OD of 10 ug peptide below 3 times of original peptide))
[2]
  Binding Capacity: 2 (medium binding :4000-20000)

## TPFRHTC [p4384]
[1]
  Inhibition Capacity: 1 (Weaker than original epitope (OD of 10 ug peptide below 3 times of original peptide))
[2]
  Binding Capacity: 2 (medium binding :4000-20000)

## TSFRHGC [p4382]
[1]
  Inhibition Capacity: 1 (Weaker than original epitope (OD of 10 ug peptide below 3 times of original peptide))
[2]
  Binding Capacity: 2 (medium binding :4000-20000)

B1: p4386 (peptide)
peptide: LMFRHNC
[3]
  OD halfmax 1:X (dilution factor of the parental antibody at half-maximal OD) (dilutionfactor(1:x)): > 20000
[4]
  OD at 10 ug peptide relative to OD of original peptide (inhibition ELISA): 2 to 3 fold

B2: Peptide 1235 (peptide)
peptide: DRELRIC
[5]
  IC50: < 0.5 µg/mL

B3: Peptide 4036 (peptide)
peptide: AYEFRH
[5]
  IC50: > 0.5 µg/mL

B4: Peptide 4022 (peptide)
peptide: SYEFRHH
[5]
  IC50: < 0.5 µg/mL

B5: p4738 (peptide)
peptide: QSEFKHWC
[3]
  OD halfmax 1:X (dilution factor of the parental antibody at half-maximal OD) (dilutionfactor(1:x)): > 20000
[4]
  OD at 10 ug peptide relative to OD of original peptide (inhibition ELISA): 2 to 3 fold

B6: Peptide 1237 (peptide)
peptide: DRELKIC
[5]
  IC50: > 5 µg/mL

B7: Peptide 3008 (peptide)
peptide: ELEFRGC
[5]
  IC50: < 5 µg/mL

B8: Peptide 4035 (peptide)
peptide: GKEFRT
[5]
  IC50: < 0.5 µg/mL

B9: p4725 (peptide)
peptide: THTDFRHC
[3]
  OD halfmax 1:X (dilution factor of the parental antibody at half-maximal OD) (dilutionfactor(1:x)): > 20000
[4]
  OD at 10 ug peptide relative to OD of original peptide (inhibition ELISA): 2 to 3 fold

B10: Peptide 4032 (peptide)
peptide: DWELRQ
[5]
  IC50: < 0.5 µg/mL

B11: p4740 (peptide)
peptide: ADHDFRHC
[3]
  OD halfmax 1:X (dilution factor of the parental antibody at half-maximal OD) (dilutionfactor(1:x)): > 20000
[4]
  OD at 10 ug peptide relative to OD of original peptide (inhibition ELISA): 2 to 3 fold

B12: Peptide 4034 (peptide)
peptide: GPEFRW
[5]
  IC50: < 0.5 µg/mL

B13: Peptide 4024 (peptide)
peptide: SSEFRVS
[5]
  IC50: < 0.5 µg/mL

B14: Peptide 1239 (peptide)
peptide: EYEFRGC
[5]
  IC50: > 0.5 µg/mL

B15: Peptide 4025 (peptide)
peptide: DWEFRD
[5]
  IC50: < 0.5 µg/mL

B16: Peptide 4021 (peptide)
peptide: SVEFRYH
[5]
  IC50: < 0.5 µg/mL

B17: Peptide 4002 (peptide)
peptide: SWEFRTC
[5]
  IC50: < 0.4 µg/mL

B18: Peptide 1236 (peptide)
peptide: DKELKIC
[5]
  IC50: > 5 µg/mL

B19: p4381 (peptide)
peptide: SEFKHGC
[3]
  OD halfmax 1:X (dilution factor of the parental antibody at half-maximal OD) (dilutionfactor(1:x)): > 20000
[4]
  OD at 10 ug peptide relative to OD of original peptide (inhibition ELISA): 2 to 3 fold

B20: p4390 (peptide)
peptide: ILFRHGC
[3]
  OD halfmax 1:X (dilution factor of the parental antibody at half-maximal OD) (dilutionfactor(1:x)): > 20000
[4]
  OD at 10 ug peptide relative to OD of original peptide (inhibition ELISA): 2 to 3 fold

B21: p4383 (peptide)
peptide: TSVFRHC
[3]
  OD halfmax 1:X (dilution factor of the parental antibody at half-maximal OD) (dilutionfactor(1:x)): > 20000
[4]
  OD at 10 ug peptide relative to OD of original peptide (inhibition ELISA): 2 to 3 fold

B22: Peptide 4023 (peptide)
peptide: SQEFRTP
[5]
  IC50: < 0.5 µg/mL

B23: Peptide 4033 (peptide)
peptide: SLEFRF
[5]
  IC50: < 0.5 µg/mL

B24: Peptide 1238 (peptide)
peptide: DKELRC
[5]
  IC50: < 0.5 µg/mL

B25: Peptide 3009 (peptide)
peptide: SFEFRGC
[5]
  IC50: < 5 µg/mL

B26: p4707 (peptide)
peptide: SPNQFRHC
[3]
  OD halfmax 1:X (dilution factor of the parental antibody at half-maximal OD) (dilutionfactor(1:x)): > 20000
[4]
  OD at 10 ug peptide relative to OD of original peptide (inhibition ELISA): 2 to 3 fold

B27: Peptide 4031 (peptide)
peptide: DAELRY
[5]
  IC50: < 0.5 µg/mL

B28: Peptide 4020 (peptide)
peptide: SWELRQA
[5]
  IC50: > 0.5 µg/mL

B29: p4730 (peptide)
peptide: DEHPFRHC
[3]
  OD halfmax 1:X (dilution factor of the parental antibody at half-maximal OD) (dilutionfactor(1:x)): > 20000
[4]
  OD at 10 ug peptide relative to OD of original peptide (inhibition ELISA): 2 to 3 fold

B30: Peptide 1241 (peptide)
peptide: DWEFRDAC
[5]
  IC50: < 0.5 µg/mL
